Assay results published in publication PMC3745347, “Interaction of Glucocorticoid Receptor (GR) with Estrogen Receptor (ER) α and Activator Protein 1 (AP1) in Dexamethasone-mediated Interference of ERα Activity*” (The Journal of Biological Chemistry, 2013).

Biological target: T1, baculovirus expressed full-length human GR (human, UniProt P04150 1-777)
T1 construct: human glucocorticoid receptor, full length, baculovirus-expressed; source: produced in baculovirus, bought: Invitrogen, partially purified
T1 sequence (looked up): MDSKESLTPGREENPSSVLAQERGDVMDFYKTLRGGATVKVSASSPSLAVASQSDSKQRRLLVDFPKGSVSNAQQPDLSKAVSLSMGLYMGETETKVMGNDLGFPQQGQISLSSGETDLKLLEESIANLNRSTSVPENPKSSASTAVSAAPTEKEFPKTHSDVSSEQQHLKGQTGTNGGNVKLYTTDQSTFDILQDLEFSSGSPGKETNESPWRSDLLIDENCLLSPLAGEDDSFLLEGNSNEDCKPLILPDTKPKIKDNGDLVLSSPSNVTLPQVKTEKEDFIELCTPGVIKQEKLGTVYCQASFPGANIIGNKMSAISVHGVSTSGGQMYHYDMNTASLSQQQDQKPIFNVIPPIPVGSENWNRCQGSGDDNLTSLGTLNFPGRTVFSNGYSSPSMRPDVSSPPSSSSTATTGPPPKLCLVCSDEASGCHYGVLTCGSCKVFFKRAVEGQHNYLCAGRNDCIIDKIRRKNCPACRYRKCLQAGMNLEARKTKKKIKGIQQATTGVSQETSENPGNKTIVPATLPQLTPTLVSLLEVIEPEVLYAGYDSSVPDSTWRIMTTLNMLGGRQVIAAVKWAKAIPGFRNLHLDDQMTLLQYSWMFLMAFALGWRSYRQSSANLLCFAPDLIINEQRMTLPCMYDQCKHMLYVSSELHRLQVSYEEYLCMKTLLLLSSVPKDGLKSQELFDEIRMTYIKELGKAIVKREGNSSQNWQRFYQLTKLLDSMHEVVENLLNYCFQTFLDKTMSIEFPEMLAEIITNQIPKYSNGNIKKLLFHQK
Experiment: pull-down; GST-ERα proteins on glutathione beads incubated with baculovirus-expressed, partially purified human GR; 50 mM Tris pH 8.0, 5 mM EDTA, 150 mM NaCl, 0.5% Nonidet P-40, 1 h at 4 °C; washes with up to 500 mM NaCl; blot for GR
Conditions: both partners purified

binding result: binds
B1: GST-ERα-N (aa 1-250) (domain or fragment, human, UniProt P03372 1-250, looked up)
chain: MTMTLHTKASGMALLHQIQGNELEPLNRPQLKIPLERPLGEVYLDSSKPAVYNYPEGAAYEFNAAAAANAQVYGQTGLPYGPGSEAAAFGSNGLGGFPPLNSVSPSPLMLLHPPPQLSPFLQPHGQQVPYYLENEPSGYTVREAGPPAFYRPNSDNRRQGGRERLASTNDKGSMAMESAKETRYCAVCNDYASGYHYGVWSCEGCKAFFKRSIQGHNDYMCPATNQCTIDKNRRKSCQACRLRKCYEVGM
notes: estrogen receptor alpha, residues 1-250 (N-terminal region: AF1 and DBD); Made in pGEX-6P1; the species of the GST construct itself is not separately stated; also called N-terminal half of ERα
